Patent publication US20230009582A1 (MEMO THERAPEUTICS, published 2023)

Columns and labels:
[1] = molecular target: T1, Siglec-9 expressed on cells (human, UniProt Q9Y336 18-463); assay: flow cytometry on human CD14+ monocytes (PBMC), mean RFU of the secondary antibody, three-parameter fit
T1 construct: also called monocyte-expressed Siglec-9
Experimental: (§1) Human ex vivo PBMC were stained with fluorescence-labeled (allophycocyanin, APC) antibody to the monocyte marker CD14 (Biolegend) in assay buffer (0.5% (v/v) heat-inactivated fetal bovine serum (Gibco), 2 mM EDTA in phosphate-buffered saline). Subsequently, cells were incubated with antibodies under evaluation at various concentrations (67 nM-0.38 pM). After a washing step cells were incubated with fluorescence-labeled (Brilliant Violet 421™) secondary antibody against human IgG (mAbA) or rabbit IgG (all other monoclonal antibodies under evaluation; both secondary antibodies from Biolegend).
(§2) Binding of Siglec-9-specific antibodies to monocytes (CD14-positive life cells) was analysed with a CytoFLEX flow cytometer (Beckham Coulter's). The mean fluorescence intensity of the secondary antibody staining in the CD14-positive population at each dilution was determined using Flow Jo software (BD). Datapoints generated by this analysis were fitted and EC50 values were determined by three-parameter analysis in GraphPad Prism (GraphPad Software)

[2] = molecular target: T2, Siglec-5-Fc (R&D systems) (UniProt O15389 17-434, limits assumed); assay: ELISA, coated Siglec-5-Fc 1 µg/ml, single antibody concentration, Abs 450 nm, n=3
T2 construct: Bought reagent; not shown: Fc part of the bought fusion; not described
T2 sequence (looked up): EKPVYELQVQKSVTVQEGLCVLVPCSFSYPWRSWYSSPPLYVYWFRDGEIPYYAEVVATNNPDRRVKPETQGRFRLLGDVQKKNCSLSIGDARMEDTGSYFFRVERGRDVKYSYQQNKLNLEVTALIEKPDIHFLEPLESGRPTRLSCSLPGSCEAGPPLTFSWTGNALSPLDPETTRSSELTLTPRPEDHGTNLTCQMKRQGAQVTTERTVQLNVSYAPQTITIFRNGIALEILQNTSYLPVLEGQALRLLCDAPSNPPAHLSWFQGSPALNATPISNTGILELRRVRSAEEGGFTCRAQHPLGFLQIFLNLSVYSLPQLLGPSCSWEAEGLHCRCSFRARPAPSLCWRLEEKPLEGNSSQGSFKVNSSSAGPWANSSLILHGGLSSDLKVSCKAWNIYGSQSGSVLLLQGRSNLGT
Experimental: (§3) Specificity towards Siglec-5, Siglec-7, Siglec-8, Siglec-15 and Siglec-9 was assayed in enzyme-linked immunosorbent assay (ELISA) using 96 well half-area ELISA plates (Corning). Siglec-5-Fc (R&D systems), Siglec-7-Fc (in-house production, Siglec-7-Fc protein used had the following amino acid sequence:
(§4) (SEQ ID NO: 59)) […] […] […] […] […] […] […] […] […] […] […] […], Siglec-8-Fc (R&D systems), Siglec-15- Fc (R&D systems) and Siglec-9-Fc (in-house production, SEQ ID NO: 11) were coated at 1 μg/ml in 50 mM carbonate-bicarbonate buffer pH 9.6 for 15-20 hours at 4° C.
(§5) Antigens were washed away (Tecan Hydrospeed) and plates were blocked with 5% skimmed milk in phosphate-buffered saline (PBS). After washing the plates, antibodies were added at 5 μg/ml (33 nM) in 0.5% milk PBS in triplicates. Plates with antibodies were incubated for 1 hour at room temperature. Plates were washed and bound antibodies were detected by horseradish peroxidase (HRP)-labeled polyclonal anti-rabbit IgG antibody (Biolegend) or anti-human Fab fragment for mAbA (Sigma Aldrich). 3,3′,5,5′-Tetramethylbenzidine (TMB; Sigma Aldrich) development was stopped by addition of sulfuric acid and absorbance was detected at 450 nm (Tecan, CM […] MONO 200).

[3] = molecular target: T3, Siglec-15-Fc (R&D systems) (UniProt Q6ZMC9 20-263, limits assumed); assay: ELISA, coated Siglec-15-Fc 1 µg/ml, single antibody concentration, Abs 450 nm, n=3
T3 construct: Bought reagent; not shown: Fc part of the bought fusion; not described
T3 sequence (looked up): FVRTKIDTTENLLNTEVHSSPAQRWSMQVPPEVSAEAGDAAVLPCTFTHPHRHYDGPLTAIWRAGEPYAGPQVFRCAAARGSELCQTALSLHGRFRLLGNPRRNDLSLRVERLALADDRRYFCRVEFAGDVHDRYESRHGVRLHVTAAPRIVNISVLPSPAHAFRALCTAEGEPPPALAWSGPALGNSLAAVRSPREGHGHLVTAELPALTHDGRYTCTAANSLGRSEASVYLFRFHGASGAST
Experimental: as §3, §4, §5

[4] = molecular target: T1, Siglec-9 expressed on cells; assay: flow cytometry on human CD14+ monocytes in PBMC
Experimental: as §1, §2

[5] = molecular target: T4, Siglec-8-Fc (R&D systems) (UniProt Q9NYZ4 17-363, limits assumed); assay: ELISA, coated Siglec-8-Fc 1 µg/ml, single antibody concentration, Abs 450 nm, n=3
T4 construct: Bought reagent; not shown: Fc part of the bought fusion; not described
T4 sequence (Q9NYZ4 17-363 limits assumed): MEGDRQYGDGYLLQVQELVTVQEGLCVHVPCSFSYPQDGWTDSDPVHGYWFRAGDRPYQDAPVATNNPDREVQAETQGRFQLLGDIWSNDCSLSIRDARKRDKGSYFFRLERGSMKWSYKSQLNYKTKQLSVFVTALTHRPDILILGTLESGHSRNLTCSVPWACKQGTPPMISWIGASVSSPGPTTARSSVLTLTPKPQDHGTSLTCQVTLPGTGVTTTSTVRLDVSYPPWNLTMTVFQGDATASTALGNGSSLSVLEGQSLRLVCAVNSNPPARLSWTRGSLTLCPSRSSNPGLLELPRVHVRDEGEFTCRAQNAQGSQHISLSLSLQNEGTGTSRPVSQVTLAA
Experimental: as §3, §4, §5

[6] = molecular target: T3, Siglec-15-Fc (R&D systems); assay: ELISA, coated Siglec-15-Fc 1 µg/ml, single antibody concentration, anti-human Fab detection, Abs 450 nm, n=3
Experimental: as §3, §4, §5

[7] = molecular target: T4, Siglec-8-Fc (R&D systems); assay: ELISA, coated Siglec-8-Fc 1 µg/ml, single antibody concentration, anti-human Fab detection, Abs 450 nm, n=3
Experimental: as §3, §4, §5

[8] = molecular target: T5, Siglec-7-Fc (in-house production); assay: ELISA, coated Siglec-7-Fc 1 µg/ml, single antibody concentration, anti-human Fab detection, Abs 450 nm, n=3
T5 construct: The entry holds the Siglec-7 part and the Fc together; also called Siglec-7-Fc protein
T5 sequence (chain, as listed by the source limits assumed): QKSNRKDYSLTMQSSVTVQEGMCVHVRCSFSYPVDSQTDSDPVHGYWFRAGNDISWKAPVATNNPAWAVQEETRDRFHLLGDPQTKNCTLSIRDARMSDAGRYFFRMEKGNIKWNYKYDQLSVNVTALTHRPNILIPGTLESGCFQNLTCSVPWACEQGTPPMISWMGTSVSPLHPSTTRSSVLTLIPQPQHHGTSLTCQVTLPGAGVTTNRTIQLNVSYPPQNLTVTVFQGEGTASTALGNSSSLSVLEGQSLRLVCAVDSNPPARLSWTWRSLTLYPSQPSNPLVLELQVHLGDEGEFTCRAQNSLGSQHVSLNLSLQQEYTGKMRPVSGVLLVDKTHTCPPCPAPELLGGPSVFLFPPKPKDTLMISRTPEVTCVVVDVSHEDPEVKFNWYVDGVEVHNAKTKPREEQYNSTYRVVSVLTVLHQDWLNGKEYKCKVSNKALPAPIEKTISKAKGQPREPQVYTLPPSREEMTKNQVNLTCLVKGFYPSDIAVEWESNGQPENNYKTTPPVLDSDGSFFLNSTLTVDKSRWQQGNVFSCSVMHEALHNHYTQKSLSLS
Experimental: as §3, §4, §5

[9] = molecular target: T2, Siglec-5-Fc (R&D systems); assay: ELISA, coated Siglec-5-Fc 1 µg/ml, single antibody concentration, anti-human Fab detection, Abs 450 nm, n=3
Experimental: as §3, §4, §5

[10] = molecular target: extra-cellular domain of Siglec-9 fused to a C-terminal his-tag (Homo sapiens (Human), UniProt Q9Y336 18-348); assay: ELISA, coated his-tagged Siglec-9 extracellular domain, anti-human Fc gamma detection, Abs 450 nm
Sequence of extra-cellular domain of Siglec-9 fused to a C-terminal his-tag (Q9Y336 18-348 limits assumed): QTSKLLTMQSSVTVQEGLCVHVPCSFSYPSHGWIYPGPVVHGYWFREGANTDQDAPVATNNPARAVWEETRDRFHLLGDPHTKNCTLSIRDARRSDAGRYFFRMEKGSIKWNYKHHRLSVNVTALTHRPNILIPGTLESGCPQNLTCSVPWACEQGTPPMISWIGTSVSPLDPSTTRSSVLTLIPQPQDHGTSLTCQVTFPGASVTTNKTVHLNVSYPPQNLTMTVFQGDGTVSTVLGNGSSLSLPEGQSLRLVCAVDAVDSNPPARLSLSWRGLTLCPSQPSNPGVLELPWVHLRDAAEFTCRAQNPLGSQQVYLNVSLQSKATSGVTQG
Text: (SEQ ID NO: 44) […] […] […] […] […] […] […]. For detection of bound IgG either polyclonal anti- rabbit IgG antibody (68D4; Biolegend, #406401), or anti-human Fey fragment (humanized 68D4 and mAbA; Jackson Immuno Research laboratories, #109-035-098) were used.

T1 sequence (Q9Y336 18-463 limits assumed): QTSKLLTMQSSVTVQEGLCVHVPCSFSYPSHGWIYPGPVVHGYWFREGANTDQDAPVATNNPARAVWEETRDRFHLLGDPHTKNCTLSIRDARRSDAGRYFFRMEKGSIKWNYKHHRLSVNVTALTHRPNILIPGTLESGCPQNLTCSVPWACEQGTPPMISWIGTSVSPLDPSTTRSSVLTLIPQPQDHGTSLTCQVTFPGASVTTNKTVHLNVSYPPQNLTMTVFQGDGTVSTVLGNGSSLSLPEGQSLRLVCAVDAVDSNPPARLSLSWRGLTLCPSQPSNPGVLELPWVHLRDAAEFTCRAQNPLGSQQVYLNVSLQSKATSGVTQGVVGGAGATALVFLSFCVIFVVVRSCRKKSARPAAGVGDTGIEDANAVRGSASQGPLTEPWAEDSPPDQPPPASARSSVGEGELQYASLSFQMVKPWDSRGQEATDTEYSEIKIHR

B1: monoclonal antibody 224B1 (rabbit) (antibody, V domains shown)
VH: QSVEESGGRLVTPETPLTLTCTASGFSLSSYYMSWVRQAPGKGLEWIGYIWTDGSAHYATWTKGRFTISKTSSTTVDLKITSPTTEDTATYFCVRANSGSHTYIEKFNLWGPGTLVTVSS
VL: DVVMTQTPASVEATVGGSVTIKCQASPSINDELSWYQQKPGQRPTLLIYEASALESGVPSRFKGSGSGTEFTLTIGDLECADAATYYCQCTYGSRSDISYGNTFGGGTEVVVKG
Question: For B1, which EC50 [1] is on record?
Answer: 0.4 nM

Question: Does B1 bind [2]?
Answer: no binding (tested: 5 µg/ml)

Question: Does B1 bind [3]?
Answer: no binding (tested: 5 µg/ml)

Question: What about the “fold stronger binding than 5C6” value [4] of the same binder?
Answer: ~10 fold

Question: Does B1 bind [5]?
Answer: no binding (tested: 5 µg/ml)

B2: comparative monoclonal antibody mAbA (WO 2017/153433), mouse-human chimera (antibody, human IgG1, kappa, V domains shown)
VH: QVQLQQPGAELVKPGSPVKLSCKASYFTFTSYWMHWVRQRPGQGLEWIGEINPSNGHTNYNEKFESKATLTVDRSSSTAYMQLSSLTSEDSAVFYCANGVESYDFDDALDYWGQGTSVTVSS
VL: DIQMTQTTSSLSASLGDRVTISCRASQDINNYLNWYQQKPDGTIKLLIYYTSRLHSGVPSRFSGSGSGTDYSLTINNLEQEDIATYFCQQGNTLPFTFGGGTKLEIKR
Question: Does B2 bind [6]?
Answer: no binding (tested: 5 µg/ml)

Question: Does B2 bind [7]?
Answer: no binding (tested: 5 µg/ml)

Question: Does B2 bind [8]?
Answer: no binding (tested: 5 µg/ml)

Question: Does B2 bind [9]?
Answer: no binding (tested: 5 µg/ml)

Question: What about the “EC50 (read off the curve)” value [10] of the same binder?
Answer: ~0.06 nM
